Ends that are not written are not given here.
T1: His6-SUMO-tagged MYC3 (44–238) (Arabidopsis thaliana, UniProt Q9FIP9)
T1 sequence (Q9FIP9 44-238): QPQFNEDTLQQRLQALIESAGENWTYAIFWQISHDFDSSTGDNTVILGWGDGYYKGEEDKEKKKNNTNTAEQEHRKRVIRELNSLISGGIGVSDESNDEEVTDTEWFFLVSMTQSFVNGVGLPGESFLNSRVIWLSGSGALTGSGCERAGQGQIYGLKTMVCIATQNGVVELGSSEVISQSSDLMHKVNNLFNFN

T2: His6-SUMO-tagged MYC3 (44-238) (Arabidopsis thaliana, UniProt Q9FIP9 44-238)
T2 sequence (looked up): T1 sequence (Q9FIP9 44-238)


Assays:
FLAG-MYC3 (full-length) = test: AlphaScreen assay of interaction with FLAG-MYC3; type: binding, Arabidopsis; conditions: FLAG-MYC3 50 nM, triplicate, in words; for AlphaScreen interaction of biotin-conjugated peptide with MYC3: Biotin-MED25^CMIDM 50, 150 or 250 nM
[1] = target: T1, His6-SUMO-tagged MYC3 (44–238); test: Fluorescence anisotropy; type: binding; conditions: in words
[2] = target: T2, His6-SUMO-tagged MYC3 (44-238); test: fluorescence polarisation

Molecule	AlphaScreen interaction of biotin-conjugated peptide with MYC3 (FLAG-MYC3 (full-length))	Kd [2] [nM]	further results
Biotin-MED25^CMIDM: biotin-conjugated CMIDM peptide of MED25 (614–655) (YVGKADFLVFRAMSQHGFLGQLQDKKLCAVIQLPSQTLLLSV; not fully specified (N-terminus); also: biotin-conjugated)	directly interact with MYC3	–	AlphaScreen interaction of partial peptides with FLAG-MYC3 (FLAG-MYC3 (full-length); peptide 150 nM each (Fig. 4D)): strong interaction
JAZ10^CMID: cryptic MYC-interacting domain of JAZ10 (26–58aa) (FQKFLDRRRSFRDIQGAISKIDPEIIKSLLAST; also: 5-carboxyfluorescein-conjugated) [reference compound]	–	–	binding affinity for MYC compared with Jas motif of JAZ and MED25 [1]: stronger binding affinity for MYC than both the Jas motif of JAZ and MED25
MED25^CMIDM: CMID-like MYC-interacting domain, amino acids 614 to 655 of MED25 (YVGKADFLVFRAMSQHGFLGQLQDKKLCAVIQLPSQTLLLSV; also: biotin-conjugated)	confirmed	–	interaction between MYC3 and CMIDM in FA assay ([1]; Fig. 5B): confirmed
FQKFLDRRRSFRDIQGAISKIDPEIIKSLLAST (peptide, UniProt Q93ZM9 26-58, looked up, also: 5-carboxyfluorescein-conjugated) [fluorescein-conjugated JAZ10^CMID (26-58aa)]	–	470	–
YVGKADFLVFRAMSQHGFLGQLQDKKLCAVIQLPSQTLLLSV (peptide, UniProt Q7XYY2 614-655, looked up, also: 5-carboxyfluorescein-conjugated) [fluorescein-conjugated MED25^CMIDM (614-655aa)]	–	1900	–

Reference: PMC8752898 (The Journal of Biological Chemistry, 2021)
